Here are results for two molecules from article PMC8637566, “ERK signaling controls productive HIF‐1 binding to chromatin and cancer cell adaptation to hypoxia through HIF‐1α interaction with NPM1” (Molecular Oncology, 2021).

The target of test [1] is NPM1 (nucleophosmin, B23) (UniProt P06748). In words: anti-FLAG IP of transduced peptide, NPM1 blot. Particulars: reference: TAT-ETD-FLAG WT; sites S641,S643.
Test [2] deals with T1, GST‐NPM1 B23.1 (UniProt P06748 1-294).
T1 construct: NPM1 isoform B23.1, the most abundant form, with the C-terminal aromatic stretch; also called GST‐B23.1; B23.1 form of recombinant NPM1; source: E. coli BL21 (RIL), purified (GSH‐agarose)
In words: pull-down; GST-NPM1 forms immobilised on GSH-agarose as baits, bacterially expressed and purified HIF-1α(348–826)SE or TAT-ETD-SE-FLAG peptide as prey; immunoblot with anti-HIF-1α or anti-Flag. Particulars: both partners purified. (Immunoblotting shows a protein as a band on a membrane.)

T1 sequence (P06748 whole entry, canonical isoform): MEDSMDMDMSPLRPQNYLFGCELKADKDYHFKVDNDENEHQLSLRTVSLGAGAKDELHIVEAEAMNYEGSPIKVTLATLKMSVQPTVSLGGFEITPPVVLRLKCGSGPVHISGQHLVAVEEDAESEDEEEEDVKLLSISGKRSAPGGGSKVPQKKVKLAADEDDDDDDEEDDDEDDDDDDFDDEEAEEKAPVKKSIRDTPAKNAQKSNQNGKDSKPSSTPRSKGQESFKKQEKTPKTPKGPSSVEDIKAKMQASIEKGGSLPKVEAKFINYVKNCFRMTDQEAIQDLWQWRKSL

“HIF‐1α ETD, 616-658 (from UniProt Q16665) TAT-ETD-SA-FLAG”: the “binding against the reference” value in test [1] was “lost”.

B1: TAT‐ETD(SE)‐FLAG peptide (peptide, UniProt Q16665 616-658, looked up)
chain: TTTATTDELKTVTKDRMEDIKILIAEPSPTHIHKETTSATSSP
notes: HIF-1α ERK targeted domain (ETD), residues 616–658, Ser641 to Glu; source: E. coli, purified
On to B1, for which, in test [2], the binding result was “binds”.
